Biological target: T1, Cathepsin G
T1 sequence (P08311 21-244, species assumed, looked up): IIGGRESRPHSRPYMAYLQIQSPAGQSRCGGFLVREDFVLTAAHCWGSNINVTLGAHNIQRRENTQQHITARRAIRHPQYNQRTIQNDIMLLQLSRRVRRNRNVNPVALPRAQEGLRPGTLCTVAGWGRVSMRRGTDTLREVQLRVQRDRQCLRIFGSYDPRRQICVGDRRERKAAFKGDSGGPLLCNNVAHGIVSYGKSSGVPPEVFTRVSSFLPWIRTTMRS
Assay: cell-based or functional assay

B1: recombinant Serpinb3a (mouse-derived), 6×His-tagged, produced in E. coli (other)
chain: HHHHHHMHLFAEATTKFTLELYRQLRESDNNIFYSPISMMTALAMLQLGAKGNTEKQIEKVLQFNETTKKTTEKSAHCHDEENVHEQFQKLMTQLNKSNDAYDLKAANSIYGAKGFPFVQTFLEDIKEYYQANVESLDFEHAAEESEKKINSWVESQTNGKIKDLFPNGSLNRSTIMVLVNAVYFKGQWNHKFDEKHTTEEKFWLNKNTSKPVQMMKQNIEFNFMFLEDVQAKIVEIPYKGKELSMIVLLPVEINGLKQLEEQLTADKLLEWTRAENMHMTELYLSLPRFKVDEKYDLPIPLEHMGMVDAFDPQKADFSGMSSTQGLVVSKVLHKSFVEVNEEGTEAAAATGVEVSLTSAQIAEDFCCDHPFLFFIIHRKTNSILFFGRISSP
B1 was tested, and the “inhibitory stoichiometry (A/A0 (405 nm) vs. time)” value was 1 inhibitor:enzyme ratio.

Reference: patent US20260116925A1 (ARIZONA BOARD OF REGENTS ON BEHALF OF ARIZONA STATE …, published 2026)
